Assay results reported in ChEMBL document CHEMBL1208712, “Synthesis and anti-HCV activity of 3',4'-oxetane nucleosides” (Bioorg Med Chem Lett, 2010).
Active and inactive are the calls of the source. No cut-off for these calls is given here.

Columns and labels:
[1] = tested on: Nc1ccn([C@@H]2O[C@@]3(CO)CO[C@H]3[C@H]2F)c(=O)n1; experiment: (§1) Activity at human recombinant deoxycytidine kinase expressed in HepG2 cells; assay type: cell-based
[2] = tested on: Nc1ccn([C@@H]2O[C@@]3(CO)CO[C@H]3C2(F)F)c(=O)n1; experiment: as §1; assay type: cell-based
[3] = tested on: Nc1ccn([C@@H]2O[C@@]3(CO)CO[C@H]3[C@@H]2F)c(=O)n1; experiment: as §1; assay type: cell-based
[4] = tested on: Nc1ccn([C@@H]2O[C@@]3(CO)CO[C@H]3[C@H]2F)c(=O)n1; experiment: (§2) Ratio of Kcat/Km for human recombinant deoxycytidine kinase
[5] = tested on: Nc1ccn([C@@H]2O[C@@]3(CO)CO[C@H]3C2(F)F)c(=O)n1; experiment: as §2
[6] = tested on: Nc1ccn([C@@H]2O[C@@]3(CO)CO[C@H]3[C@@H]2F)c(=O)n1; experiment: as §2
[7] = molecular target: T1, UMP-CMP kinase (Homo sapiens) (UniProt P30085); experiment: Activity at human recombinant UMP-CMP kinase
T1 sequence (whole entry): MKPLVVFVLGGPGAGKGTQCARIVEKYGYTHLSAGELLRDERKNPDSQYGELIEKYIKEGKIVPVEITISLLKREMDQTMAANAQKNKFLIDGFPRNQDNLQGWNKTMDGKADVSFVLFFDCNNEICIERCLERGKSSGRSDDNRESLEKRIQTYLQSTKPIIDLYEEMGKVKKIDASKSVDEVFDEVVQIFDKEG

Chain of Deoxycytidine kinase (Homo sapiens), P27707 (P27707 whole entry): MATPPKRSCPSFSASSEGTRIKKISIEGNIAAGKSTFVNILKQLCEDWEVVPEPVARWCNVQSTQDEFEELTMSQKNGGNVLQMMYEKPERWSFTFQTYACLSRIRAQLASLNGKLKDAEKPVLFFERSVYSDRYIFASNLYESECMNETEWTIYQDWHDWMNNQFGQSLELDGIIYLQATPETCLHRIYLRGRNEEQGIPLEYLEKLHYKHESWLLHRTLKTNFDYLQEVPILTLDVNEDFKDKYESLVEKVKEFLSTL

Deoxycytidine kinase (Homo sapiens), P27707
Km [1]: 61 µM
kcat [1]: 0.0214 s⁻¹
Km [2]: 27.6 µM
kcat [2]: 0.0599 s⁻¹
Km [3]: 81.1 µM
kcat [3]: 0.122 s⁻¹
kcat/Km [4]: 3.5 ×10⁻⁴ /µM/s
kcat/Km (10'-3/microM/s) [5]: 2.2
kcat/Km (10'-3/microM/s) [6]: 1.5

Nc1ccn([C@@H]2O[C@@]3(CO)CO[C@H]3[C@H]2F)c(=O)n1
Activity [7]: inactive

Nc1ccn([C@@H]2O[C@@]3(CO)CO[C@H]3C2(F)F)c(=O)n1
Activity [7]: inactive

Nc1ccn([C@@H]2O[C@@]3(CO)CO[C@H]3[C@@H]2F)c(=O)n1
Activity [7]: inactive
